Measurements reported in the Human Domainome abundance scans (Beltran et al. 2025).
± gives the uncertainty stated by the source.

B1: CD2-associated protein, residues 271 to 331; numbered along this chain, Q9Y5K6 (parent)
chain: KEYCRTLFAYEGTNEDELTFKEGEIIHLISKETGEAGWWRGELNGKEGVFPDNFAVQINEL

Variants of: B1
Assay: abundance fitness (aPCA) (normalised: wild type 0, dead -1); higher = more abundant; growth selection in yeast, the domain comes from the species named
Details: Homo sapiens

Compared with KEYCRTLFAYEGTNEDELTFKEGEIIHLISKETGNAGWWRGELNGKEGVFPDNFAVQINEL [E35N], KEYCRTLFAYEGTNEDELTFKEGEIIHLISKETGPAGWWRGELNGKEGVFPDNFAVQINEL [E35P] is lower in abundance fitness: 0.002 ± 0.11 for the first, -0.252 ± 0.067 for the second.

KEYCRTLFAYEGTNEDELTFKEGEIIHLISKETGQAGWWRGELNGKEGVFPDNFAVQINEL [E35Q] and KEYCRTLFAYEGTNEDELTFKEGEIIHLISKETGRAGWWRGELNGKEGVFPDNFAVQINEL [E35R] are within error of each other in abundance fitness: 0.036 ± 0.067 for the first, 0.034 ± 0.063 for the second.

KEYCRTLFAYEGTNEDELTFKEGEIIHLISKETGSAGWWRGELNGKEGVFPDNFAVQINEL [E35S] and KEYCRTLFAYEGTNEDELTFKEGEIIHLISKETGTAGWWRGELNGKEGVFPDNFAVQINEL [E35T] are within error of each other in abundance fitness: 0.034 ± 0.07 for the first, 0.132 ± 0.079 for the second.

First: KEYCRTLFAYEGTNEDELTFKEGEIIHLISKETGVAGWWRGELNGKEGVFPDNFAVQINEL [E35V]
Second: KEYCRTLFAYEGTNEDELTFKEGEIIHLISKETGWAGWWRGELNGKEGVFPDNFAVQINEL [E35W]
The abundance fitness of the first is higher: 0.032 ± 0.099 for the first, -0.358 ± 0.11 for the second.

KEYCRTLFAYEGTNEDELTFKEGEIIHLISKETGYAGWWRGELNGKEGVFPDNFAVQINEL [E35Y] and KEYCRTLFAYEGTNEDELTFKEGEIIHLISKETGECGWWRGELNGKEGVFPDNFAVQINEL [A36C] are within error of each other in abundance fitness: 0.055 ± 0.13 for the first, -0.147 ± 0.11 for the second.

KEYCRTLFAYEGTNEDELTFKEGEIIHLISKETGEDGWWRGELNGKEGVFPDNFAVQINEL [A36D] and KEYCRTLFAYEGTNEDELTFKEGEIIHLISKETGEEGWWRGELNGKEGVFPDNFAVQINEL [A36E] are within error of each other in abundance fitness: -0.082 ± 0.11 for the first, -0.13 ± 0.091 for the second.

KEYCRTLFAYEGTNEDELTFKEGEIIHLISKETGEFGWWRGELNGKEGVFPDNFAVQINEL [A36F] and KEYCRTLFAYEGTNEDELTFKEGEIIHLISKETGEGGWWRGELNGKEGVFPDNFAVQINEL [A36G] are within error of each other in abundance fitness: -0.158 ± 0.14 for the first, -0.235 ± 0.051 for the second.

KEYCRTLFAYEGTNEDELTFKEGEIIHLISKETGEHGWWRGELNGKEGVFPDNFAVQINEL [A36H] and KEYCRTLFAYEGTNEDELTFKEGEIIHLISKETGEIGWWRGELNGKEGVFPDNFAVQINEL [A36I] are within error of each other in abundance fitness: -0.199 ± 0.15 for the first, -0.193 ± 0.17 for the second.

Compared with KEYCRTLFAYEGTNEDELTFKEGEIIHLISKETGEKGWWRGELNGKEGVFPDNFAVQINEL [A36K], KEYCRTLFAYEGTNEDELTFKEGEIIHLISKETGELGWWRGELNGKEGVFPDNFAVQINEL [A36L] is lower in abundance fitness: -0.008 ± 0.094 for the first, -0.305 ± 0.072 for the second.

Compared with KEYCRTLFAYEGTNEDELTFKEGEIIHLISKETGEMGWWRGELNGKEGVFPDNFAVQINEL [A36M], KEYCRTLFAYEGTNEDELTFKEGEIIHLISKETGEPGWWRGELNGKEGVFPDNFAVQINEL [A36P] is higher in abundance fitness: -0.18 ± 0.14 for the first, 0.114 ± 0.09 for the second.

KEYCRTLFAYEGTNEDELTFKEGEIIHLISKETGEQGWWRGELNGKEGVFPDNFAVQINEL [A36Q] and KEYCRTLFAYEGTNEDELTFKEGEIIHLISKETGERGWWRGELNGKEGVFPDNFAVQINEL [A36R] are within error of each other in abundance fitness: 0.036 ± 0.12 for the first, -0.054 ± 0.046 for the second.

KEYCRTLFAYEGTNEDELTFKEGEIIHLISKETGETGWWRGELNGKEGVFPDNFAVQINEL [A36T] and KEYCRTLFAYEGTNEDELTFKEGEIIHLISKETGEVGWWRGELNGKEGVFPDNFAVQINEL [A36V] are within error of each other in abundance fitness: -0.044 ± 0.066 for the first, -0.03 ± 0.064 for the second.

KEYCRTLFAYEGTNEDELTFKEGEIIHLISKETGEWGWWRGELNGKEGVFPDNFAVQINEL [A36W] and KEYCRTLFAYEGTNEDELTFKEGEIIHLISKETGEYGWWRGELNGKEGVFPDNFAVQINEL [A36Y] are within error of each other in abundance fitness: -0.22 ± 0.068 for the first, -0.334 ± 0.15 for the second.

KEYCRTLFAYEGTNEDELTFKEGEIIHLISKETGEADWWRGELNGKEGVFPDNFAVQINEL [G37D] and KEYCRTLFAYEGTNEDELTFKEGEIIHLISKETGEAEWWRGELNGKEGVFPDNFAVQINEL [G37E] are within error of each other in abundance fitness: -0.617 ± 0.17 for the first, -0.368 ± 0.19 for the second.

KEYCRTLFAYEGTNEDELTFKEGEIIHLISKETGEAFWWRGELNGKEGVFPDNFAVQINEL [G37F] and KEYCRTLFAYEGTNEDELTFKEGEIIHLISKETGEAHWWRGELNGKEGVFPDNFAVQINEL [G37H] are within error of each other in abundance fitness: -0.492 ± 0.25 for the first, -0.306 ± 0.17 for the second.

KEYCRTLFAYEGTNEDELTFKEGEIIHLISKETGEAIWWRGELNGKEGVFPDNFAVQINEL [G37I] and KEYCRTLFAYEGTNEDELTFKEGEIIHLISKETGEAKWWRGELNGKEGVFPDNFAVQINEL [G37K] are within error of each other in abundance fitness: -0.613 ± 0.2 for the first, -0.403 ± 0.097 for the second.

KEYCRTLFAYEGTNEDELTFKEGEIIHLISKETGEALWWRGELNGKEGVFPDNFAVQINEL [G37L] and KEYCRTLFAYEGTNEDELTFKEGEIIHLISKETGEAMWWRGELNGKEGVFPDNFAVQINEL [G37M] are within error of each other in abundance fitness: -0.884 ± 0.12 for the first, -0.819 ± 0.17 for the second.

KEYCRTLFAYEGTNEDELTFKEGEIIHLISKETGEANWWRGELNGKEGVFPDNFAVQINEL [G37N] and KEYCRTLFAYEGTNEDELTFKEGEIIHLISKETGEAPWWRGELNGKEGVFPDNFAVQINEL [G37P] are within error of each other in abundance fitness: -0.747 ± 0.16 for the first, -0.852 ± 0.2 for the second.

KEYCRTLFAYEGTNEDELTFKEGEIIHLISKETGEAQWWRGELNGKEGVFPDNFAVQINEL [G37Q] and KEYCRTLFAYEGTNEDELTFKEGEIIHLISKETGEARWWRGELNGKEGVFPDNFAVQINEL [G37R] are within error of each other in abundance fitness: -0.428 ± 0.2 for the first, -0.651 ± 0.09 for the second.

KEYCRTLFAYEGTNEDELTFKEGEIIHLISKETGEASWWRGELNGKEGVFPDNFAVQINEL [G37S] and KEYCRTLFAYEGTNEDELTFKEGEIIHLISKETGEATWWRGELNGKEGVFPDNFAVQINEL [G37T] are within error of each other in abundance fitness: -0.718 ± 0.1 for the first, -0.416 ± 0.32 for the second.

KEYCRTLFAYEGTNEDELTFKEGEIIHLISKETGEAVWWRGELNGKEGVFPDNFAVQINEL [G37V] and KEYCRTLFAYEGTNEDELTFKEGEIIHLISKETGEAWWWRGELNGKEGVFPDNFAVQINEL [G37W] are within error of each other in abundance fitness: -0.647 ± 0.1 for the first, -1.08 ± 0.43 for the second.

KEYCRTLFAYEGTNEDELTFKEGEIIHLISKETGEAYWWRGELNGKEGVFPDNFAVQINEL [G37Y] gave an abundance fitness of -0.898 ± 0.2.
